Experimental data reported in the RNAGym collection of RNA variant scans (doi:10.7554/elife.80360).

B1: HDV Ribozyme (parent)
chain: GGCCGGCAUGGUCCCAGCCUCCUCGCUGGCGCCGGCUGGGCAACAUUCCGAGGGGACCGUCCCCUCGGUAAUGGCGAAUGGGACCCA

Variants of: B1
Assay: self-cleavage, relative activity (ratio to wild type); higher = more cleavage; co-transcriptional

| Variant | self-cleavage |
| --- | --- |
| GGCCGUCAUGGUCCCAGCCUCCUCGCUGGCGCCGGCUGGGCAACAUUCCGAGGGGACCGUCGCCUCGGUAAUGGCGAAUGGGACCCA [G6U C62G] | 0.332 |
| GGCCGGCAUGAUCCCAGCCUCCUCGCAGGCGCCGGCUGGGCAACAUUCCGAGGGGACCGUCCCCUCGGUAAUGGCGAAUGGGACCCA [G11A U27A] | 0.815 |
| GGCCGGCAUGGUCCCAGCCUCCUCGCUGGCGCCGGCUGGGCAACAUUCCGAGGGGACCGUGCCCUCGGUAUUGGCGAAUGGGACCCA [C61G A71U] | 0.997 |
| GGCCGGCAUGGUCCCAGCCUCCUCGCUGGCGCCGGCUGGGCAACAUACCGAGGGGACCGUCUCCUCGGUAAUGGCGAAUGGGACCCA [U47A C62U] | 1.03 |
| GGCCGGCAUGGUCCCAGCCUCCUCCCUGGCGCCGGCCGGGCAACAUUCCGAGGGGACCGUCCCCUCGGUAAUGGCGAAUGGGACCCA [G25C U37C] | 0.0554 |
| GGCCGGCAUGGUCCCAGCCUCCUCGCUAGCGCCGGCUGGGCAACAUUCCGAGGGGACCGUCCCCUCGGUAAUGGGGAAUGGGACCCA [G28A C75G] | 0 |
| GGCCGGCAUGGUCCCAGCCUCCUCACUGGCGCCGGCUGGGCAACAUUCCGAGGGGACCGUCCCCUCGCUAAUGGCGAAUGGGACCCA [G25A G68C] | 0.253 |
| GGCCGGCAUGGUCCCAGCCUCCUCGCUGGCGCCGACUGGGCCACAUUCCGAGGGGACCGUCCCCUCGGUAAUGGCGAAUGGGACCCA [G35A A42C] | 0.277 |
| GGCCAGCAUGGUCCCAGCCUCCUCGCUGGCGCCGGCCGGGCAACAUUCCGAGGGGACCGUCCCCUCGGUAAUGGCGAAUGGGACCCA [G5A U37C] | 0.764 |
| GGCCGGCAUGGUCCCAGCCUCCUCGCUGGCGCCUGCUUGGCAACAUUCCGAGGGGACCGUCCCCUCGGUAAUGGCGAAUGGGACCCA [G34U G38U] | 0.248 |
| GGCCGGCAUGGUCCCAGCCUCCUCGCUGGCGCCGGCUAUGCAACAUUCCGAGGGGACCGUCCCCUCGGUAAUGGCGAAUGGGACCCA [G38A G39U] | 0.0665 |
| GGCCGGCAUGGUCCCAGCCUCCUUGCUGGCGCCGGCUGGGCAACAUUCCGAGGGGACCGUCCCCUCGGUAAUGGCUAAUGGGACCCA [C24U G76U] | 0.917 |
| GGCCGGUAUGGUCCCAGCCUCCUCGCUGGCGCCGGCUGGGCAACAUUCCGAGGGGCCCGUCCCCUCGGUAAUGGCGAAUGGGACCCA [C7U A56C] | 0.806 |
| GGCCGGCAUGGUCCCAGCCUCCUCGCUGGCGCCGGCUGGGCAACAUGCCGAGGGGACCGUCCCCUCGGUAAUAGCGAAUGGGACCCA [U47G G73A] | 0.852 |
| GGCCGGCAUGGUCCCAGCCUCCUCGUUGGCGCCGGCUGGGCAACAUUCAGAGGGGACCGUCCCCUCGGUAAUGGCGAAUGGGACCCA [C26U C49A] | 1.11 |
| GGCCGGCAUGGUCCCCGCCUCCUCGCUGGCGCCAGCUGGGCAACAUUCCGAGGGGACCGUCCCCUCGGUAAUGGCGAAUGGGACCCA [A16C G34A] | 0.18 |
| GGCCGGCAUGAUCCCAGCCUCCUCGCUGGUGCCGGCUGGGCAACAUUCCGAGGGGACCGUCCCCUCGGUAAUGGCGAAUGGGACCCA [G11A C30U] | 0.0645 |
| GGCCCGCAUGGUCCCAGCCCCCUCGCUGGCGCCGGCUGGGCAACAUUCCGAGGGGACCGUCCCCUCGGUAAUGGCGAAUGGGACCCA [G5C U20C] | 0.0875 |
| GGCCGGCAUGGUCCCAGCCUCCUCGCUGGCGCCGGCUGGGCAACAUUCCGAGGGGACCGCCCCCUCGGUAAUGGCGAAUGGGACCCA [U60C] | 1.01 |
| GGCCGGUAUGGUCCCAGCCUCCUCGCUGGCGCUGGCUGGGCAACAUUCCGAGGGGACCGUCCCCUCGGUAAUGGCGAAUGGGACCCA [C7U C33U] | 0.672 |
| GGCCGGCAUGGUCCCAGCCUCCUCGCUGGCGCCGGCUGGGAAACAUUCCGAGGGGACCGUCCCCUCGGUAAUGGCGAAAGGGACCCA [C41A U79A] | 0.656 |
| GGCCGGCAUGGUCCCAGCCUCCUCGCUGGCGCCGGCUGGGCAACAUUCCGAGGGGACCAACCCCUCGGUAAUGGCGAAUGGGACCCA [G59A U60A] | 0.979 |

| Variant | self-cleavage |
| --- | --- |
| GGCCGGCAUGGUCCCAGCCUCCUCGCUGGCGCGGGCUGGGCAACAUUCCGAGGGGACAGUCCCCUCGGUAAUGGCGAAUGGGACCCA [C33G C58A] | 0.369 |
| UGCCGGCAUGGUCCCAGCCUCCUCGCUGGCGCCGGCUGGGCAACAUUCCGAGGGGACCGUCCCAUCGGUAAUGGCGAAUGGGACCCA [G1U C64A] | 0.453 |
| GGCCGGCAUGGUCCCAGCCUCCUCGAUGGCGGCGGCUGGGCAACAUUCCGAGGGGACCGUCCCCUCGGUAAUGGCGAAUGGGACCCA [C26A C32G] | 0 |
| GGCCGGCAUGGUCCCAGCCUCCUCGCUGGCGCCGGCUGGGCAACAUUCCGAGGGGACCGUCCACUCGGUAAUGGCGAAUGGGACGCA [C63A C85G] | 0.849 |
| GGCCGGCAUGAUCCCAGCCUCCACGCUGGCGCCGGCUGGGCAACAUUCCGAGGGGACCGUCCCCUCGGUAAUGGCGAAUGGGACCCA [G11A U23A] | 0.313 |
| GGCCGGCAUGGUCCCAGCCUCCUCGCUGGCUCCGCCUGGGCAACAUUCCGAGGGGACCGUCCCCUCGGUAAUGGCGAAUGGGACCCA [G31U G35C] | 0.141 |
| GGCCGGCAUGGUCCCAGCCUCCUCGCUGGCGCCGGCUGGGGAACAUUCCGAGGUGACCGUCCCCUCGGUAAUGGCGAAUGGGACCCA [C41G G54U] | 0.739 |
| GGUCGGCAUGGUCCCAGCCUCCUCGCUGGCGCCGGCUGGGCAACAUUCCGAGGUGACCGUCCCCUCGGUAAUGGCGAAUGGGACCCA [C3U G54U] | 0.732 |
| GGCCGGCAUGGUCCCAGCCUCCUCGCUGGCGCCGGCUGGGCAACAUUCCGAGGGGACCGUCCCCUCGGCAAUGGCGAAUCGGACCCA [U69C G80C] | 0.0396 |
| GGCCGGCAUGGUCCCAGCAUCCUCGCUGGCGCCGGCUGGGCAACAUUCCGAGUGGACCGUCCCCUCGGUAAUGGCGAAUGGGACCCA [C19A G53U] | 0.157 |
| GGCCGGCAUGGUCCCAGCCUCCUCGCUGGCGCCGGCUGGGCAACAUUCCGAGGGGACCGGCCCCUCGGUAAUAGCGAAUGGGACCCA [U60G G73A] | 0.591 |
| GGCCGGCAUGGUCCCAGCCUCCUCUCUGGCGCCGGCUGGGCAACAUUCCGAGGGGACCGUCCCCUCGGUAAUGGCGCAUGGGACCCA [G25U A77C] | 0.0504 |
| GGCCGGCAUGGUCCCAGCCUCCUCGCUGGCGCCGGCUGGGCAACAUACCGAGGGGACCGUCCCCUCGGUAAUGCCGAAUGGGACCCA [U47A G74C] | 0.104 |
| GGCCGGCAUGGUCCCAGCCGCCUCGCUGGCCCCGGCUGGGCAACAUUCCGAGGGGACCGUCCCCUCGGUAAUGGCGAAUGGGACCCA [U20G G31C] | 0 |
| GGCCGGCAUGGUGCCAGCCUCGUCGCUGGCGCCGGCUGGGCAACAUUCCGAGGGGACCGUCCCCUCGGUAAUGGCGAAUGGGACCCA [C13G C22G] | 0.131 |
| GGCCGGCAUGGUCACAGCCUCCUCGCUGGCGCCGGCUGGGCAACAUUCCGAGAGGACCGUCCCCUCGGUAAUGGCGAAUGGGACCCA [C14A G53A] | 0.499 |
| GGCCGGCAUGGUCCCAGCCUCCUCGCUGGCGCCGGCUGGGCAACAUUCCGAGGGGAUCGUCCCGUCGGUAAUGGCGAAUGGGACCCA [C57U C64G] | 0.946 |
| GGUCGGCAUGGUCGCAGCCUCCUCGCUGGCGCCGGCUGGGCAACAUUCCGAGGGGACCGUCCCCUCGGUAAUGGCGAAUGGGACCCA [C3U C14G] | 0.739 |
| GGCCGGCAUGGUCCCAGCCUCCUCGCUGGCGCCGGCUGGGCAACAUUCCGAGUGGCCCGUCCCCUCGGUAAUGGCGAAUGGGACCCA [G53U A56C] | 0.831 |
| GGCCGGCAUGGUCCCAGCCUCCUCGCUGGUGCCGGCUGGGCAACAUUCCGAGGGGACCGUCCCCUCGCUAAUGGCGAAUGGGACCCA [C30U G68C] | 0.575 |
| GGCCGGCAUGGUCCCAGCCUCCUCGCUGGCACCGGCUGGGCAACAUUCCGAGGGGACCGUCCCCUAGGUAAUGGCGAAUGGGACCCA [G31A C66A] | 0.546 |
| GGCCGGCAUGGUCCCAGCCUCCUCGCUGGCGCCGGCUGUGCAACAUUCCGAGGGGACCGUCCCCUCGGGAAUGGCGAAUGGGACCCA [G39U U69G] | 0.635 |

| Variant | self-cleavage |
| --- | --- |
| GGCCGGCAUGGUCCGAGCCUCCUCGCUGGCGCCGGCUGGGCAACAUUCCGAGGGGACCCUCCCCUCGGUAAUGGCGAAUGGGACCCA [C15G G59C] | 0.767 |
| GGCCGGCAUGGUCCCAGCCUCCUCGCUGGCGCCGGCUGGGGAACAUUCCGAGGGGACCGUCCCCUCGGUAACGGCGAAUGGGACCCA [C41G U72C] | 0.201 |
| GACCGGCAUGGUCCCAGCCUCCUCGCUGGCGCCGGCUGGGCAACAUUCCGAGGGGACCGUCCCCUCGGUAAUGGCGAAUGGGACCAA [G2A C86A] | 0.172 |
| GGCCGGCAUGGUCCCAGCCUCCUCGCUGGCGCCGGCUGGGCAACAUUCCGAGGGGACCGUCCCCUCGGUACGGGCGAAUGGGACCCA [A71C U72G] | 0.465 |
| GGGCGGCAUGGUCCAAGCCUCCUCGCUGGCGCCGGCUGGGCAACAUUCCGAGGGGACCGUCCCCUCGGUAAUGGCGAAUGGGACCCA [C3G C15A] | 0.293 |
| GGCUGGCAUUGUCCCAGCCUCCUCGCUGGCGCCGGCUGGGCAACAUUCCGAGGGGACCGUCCCCUCGGUAAUGGCGAAUGGGACCCA [C4U G10U] | 0.163 |
| GGCCGGCAUGGUCCCAGCCCCCUCGCUGGCGCCGGCUGGGCAACAUUCCGAGGGGACCGUCCCCUCGGUAAUGGCAAAUGGGACCCA [U20C G76A] | 0.198 |
| GGCAGGCAUGGUCCCAGCCUCCUCGCUGGCGCCGGCUGGGCAACAUUCCGAGGGGACCUUCCCCUCGGUAAUGGCGAAUGGGACCCA [C4A G59U] | 0.415 |
| GGCCGGCAUGGUCCCAGCCUCCUCGCUGGCGCCUGCUGGGCAACAUUCCGAGGGGACCGUCCCCUCGGUAAUGGCUAAUGGGACCCA [G34U G76U] | 0.132 |
| GGCCGGCAUGGUCCCAGCCUCCUCGCUGGCGCCGGCUGGCCAACAUUCCGAGGGGACCGUCUCCUCGGUAAUGGCGAAUGGGACCCA [G40C C62U] | 0.324 |
| GGCCUGCAUGGUCCCAGCCUCCUCGCUCGCGCCGGCUGGGCAACAUUCCGAGGGGACCGUCCCCUCGGUAAUGGCGAAUGGGACCCA [G5U G28C] | 0.0554 |
| GGCCCGCAUGGUCCCAGCCUCCUCGCUGGCGCCGGCUGGGCAACAUUCCGAAGGGACCGUCCCCUCGGUAAUGGCGAAUGGGACCCA [G5C G52A] | 0.252 |
| GGCCGGCAUGCUCCCAGCCUCCUCGCUGGCGCCGGCUGGGCAACAUUCCGAGGGGACCGUCUCCUCGGUAAUGGCGAAUGGGACCCA [G11C C62U] | 0.271 |
| GGCCGGCAUGGUCCCAGCCUCCUCGCUGCCGCCGGCUGGCCAACAUUCCGAGGGGACCGUCCCCUCGGUAAUGGCGAAUGGGACCCA [G29C G40C] | 0.18 |
| GGCCGGCAUGGUCCCAGCCUCCUCGCUGGCGCCGGCUGGACACCAUUCCGAGGGGACCGUCCCCUCGGUAAUGGCGAAUGGGACCCA [G40A A43C] | 0.601 |
| GGCAGGCAAGGUCCCAGCCUCCUCGCUGGCGCCGGCUGGGCAACAUUCCGAGGGGACCGUCCCCUCGGUAAUGGCGAAUGGGACCCA [C4A U9A] | 0.323 |
| GGCCAGCAUGGUCCCAGCCUCCUCCCUGGCGCCGGCUGGGCAACAUUCCGAGGGGACCGUCCCCUCGGUAAUGGCGAAUGGGACCCA [G5A G25C] | 0.0923 |
| GGCCGGCAUGGUCCCAGCCUCCUCGCAGGCGCCGGCUGGGCAACAUUCCGAGGGGACCGUCCCCUCGGUAAUGGCGAGUGGGACCCA [U27A A78G] | 0.249 |
| GGCCGGCAUGGUCCCAGCCUCCUCGCUGGCGCGGGCUGGGCAUCAUUCCGAGGGGACCGUCCCCUCGGUAAUGGCGAAUGGGACCCA [C33G A43U] | 0.175 |
| GGCCGGCAUGGUCCCAGCCUCCUCGCUGGCGCCGGCUUGGCAACAUUCCGAGGGGACCGUCCCCUCGGUAAUGGCGUAUGGGACCCA [G38U A77U] | 0.0845 |
